Data as given in patent US20150139990A1 (DAINIPPON SUMITOMO PHARMA, published 2015).

Key:
Assay in all cases: ELISA
[1] = target: T1, c138h human-chicken CD81 chimera (chicken; human, UniProt P60033 1-236)
T1 construct: as m30; not shown: C-terminal V5 and 6xHis tags
T1 chain: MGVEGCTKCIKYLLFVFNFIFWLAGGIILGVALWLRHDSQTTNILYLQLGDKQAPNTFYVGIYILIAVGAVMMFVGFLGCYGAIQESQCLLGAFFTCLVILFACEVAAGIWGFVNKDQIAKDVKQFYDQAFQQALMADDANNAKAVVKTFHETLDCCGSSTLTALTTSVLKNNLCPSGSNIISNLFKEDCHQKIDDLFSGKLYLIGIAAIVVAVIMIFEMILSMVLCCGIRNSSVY
Experimental: (§1) To identify the epitopes to which each of the anti-human CD81 antibodies (002-A07 and 005-001) bind, ELISA assays were performed using human-chicken CD81 chimera constructs listed in Table 6. Each construct was transiently expressed in CHO cells and its cell membrane fraction was solubilized with detergents and immobilized onto a plate.
(§2) As control antibodies, human IgG4 antibody (Acris Antibodies GmbH) and mouse IgG antibody were used. Human-chicken chimera protein was captured via His tag introduced into the C-terminal by adding the membrane fraction (5 μg/100 μL/well) prepared (1) above to Ni NTA His Sorb plate (QIAGEN) in the presence of 1% (w/v) n-Octylglucoside and incubating for 3 hours at 4° C. After washing with TBST (TBS, 0.05% (v/v) Tween 20) three times, an anti-human CD81 antibody or a control antibody (50 μL/well) was added and incubated for 1 hour at room temperature (RT). After washing, 2000 fold-diluted HRP-labeled anti-human IgG4 antibody (Mouse anti-human IgG₄ HRP clone:HP6023 Beckman Coulter) or 1000 fold-diluted HRP-labeled anti-mouse IgG antibody (Invitrogen) (50 μL/well) were added. The plate was incubated for 1 hour at RT and washed with TBST three times. And then, peroxidase activity was determined by TMB One solution (Promega; Code 53025). The reaction was stopped with 2 M H₂SO₄ (50 μL) and absorbance at 450 nm was measured.

[2] = target: T2, h190c human-chicken CD81 chimera (human; chicken, UniProt P60033 1-236)
T2 construct: as m30; not shown: C-terminal V5 and 6xHis tags
T2 chain: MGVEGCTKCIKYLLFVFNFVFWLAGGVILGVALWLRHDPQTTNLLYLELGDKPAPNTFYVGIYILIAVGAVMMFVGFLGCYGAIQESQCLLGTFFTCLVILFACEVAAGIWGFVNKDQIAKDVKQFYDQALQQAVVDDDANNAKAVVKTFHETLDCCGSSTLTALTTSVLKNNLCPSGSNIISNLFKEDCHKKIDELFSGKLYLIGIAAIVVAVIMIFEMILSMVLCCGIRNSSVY
Experimental: as §1, §2

[3] = target: T3, c190h human-chicken CD81 chimera (chicken; human)
T3 construct: as m30; not shown: C-terminal V5 and 6xHis tags
T3 chain: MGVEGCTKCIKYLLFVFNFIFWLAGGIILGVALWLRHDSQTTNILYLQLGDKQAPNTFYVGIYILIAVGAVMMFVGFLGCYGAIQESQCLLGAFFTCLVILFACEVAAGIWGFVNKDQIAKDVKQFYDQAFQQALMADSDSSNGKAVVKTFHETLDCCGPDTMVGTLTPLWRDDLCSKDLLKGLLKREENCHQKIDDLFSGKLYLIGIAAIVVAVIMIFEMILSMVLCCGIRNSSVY
Experimental: as §1, §2

[4] = target: T4, c80h human-chicken CD81 chimera (chicken; human, UniProt P60033 1-236)
T4 construct: as m30; not shown: C-terminal V5 and 6xHis tags
T4 chain: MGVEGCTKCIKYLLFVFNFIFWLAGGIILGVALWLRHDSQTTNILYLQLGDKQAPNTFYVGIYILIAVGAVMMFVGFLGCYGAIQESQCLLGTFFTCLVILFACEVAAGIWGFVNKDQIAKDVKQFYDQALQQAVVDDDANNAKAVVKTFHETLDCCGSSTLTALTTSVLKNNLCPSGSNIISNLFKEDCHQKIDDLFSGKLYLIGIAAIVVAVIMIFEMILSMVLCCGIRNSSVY
Experimental: as §1, §2

human CD81 mutant D137A = target: T5, human CD81 mutant D137A (human, UniProt P60033 1-236, limits assumed)
T5 construct: as m30; not shown: C-terminal V5 and 6xHis tags
T5 sequence: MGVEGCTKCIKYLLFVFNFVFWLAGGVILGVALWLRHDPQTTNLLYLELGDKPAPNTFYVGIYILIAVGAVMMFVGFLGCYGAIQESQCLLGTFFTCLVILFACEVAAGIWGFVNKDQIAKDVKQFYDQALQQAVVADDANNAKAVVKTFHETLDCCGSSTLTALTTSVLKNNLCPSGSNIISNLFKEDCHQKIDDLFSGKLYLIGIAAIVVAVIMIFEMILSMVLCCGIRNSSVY
In short: (§3)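 Human CD81 point mutants in pcDNA-DEST40 with C-terminal V5 and 6×His tags were expressed transiently in CHO cells for 48 hours. Membranes were solubilised with 1% n-octylglucoside and loaded at 5 μg/100 μL/well on Ni-NTA His Sorb plates (3 hours, 4° C). Antibody binding (1 hour, room temperature) was detected with HRP anti-human IgG4, TMB and absorbance at 450 nm. Relative binding affinity is the percentage of wild-type CD81 binding, corrected for V5-tag expression.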

human CD81 mutant D137E = target: T6, human CD81 mutant D137E (human, UniProt P60033 1-236, limits assumed)
T6 construct: as m30; not shown: C-terminal V5 and 6xHis tags
T6 sequence: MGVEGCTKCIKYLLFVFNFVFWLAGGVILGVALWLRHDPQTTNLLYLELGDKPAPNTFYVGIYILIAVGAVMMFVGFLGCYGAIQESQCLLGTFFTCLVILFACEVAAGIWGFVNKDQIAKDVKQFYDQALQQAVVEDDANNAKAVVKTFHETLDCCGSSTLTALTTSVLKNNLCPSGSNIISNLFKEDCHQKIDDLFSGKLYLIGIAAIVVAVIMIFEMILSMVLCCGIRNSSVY
In short: as §3

human CD81 mutant A164V = target: T7, human CD81 mutant A164V (human, UniProt P60033 1-236, limits assumed)
T7 construct: as m30; not shown: C-terminal V5 and 6xHis tags
T7 sequence: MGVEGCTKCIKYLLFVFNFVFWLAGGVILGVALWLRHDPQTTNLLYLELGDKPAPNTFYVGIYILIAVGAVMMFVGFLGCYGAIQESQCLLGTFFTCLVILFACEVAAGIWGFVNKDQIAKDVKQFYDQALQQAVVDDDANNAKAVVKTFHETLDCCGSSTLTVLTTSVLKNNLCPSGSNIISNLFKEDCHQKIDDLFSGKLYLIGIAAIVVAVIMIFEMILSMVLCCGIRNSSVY
In short: as §3

absorbance at 450 nm relative to hCD81 [1]: < 10%
binding result [2]: binds
absorbance at 450 nm relative to hCD81 [3]: < 10%
binding result [4]: binds
relative binding affinity (human CD81 mutant D137A): < 20%
relative binding affinity (human CD81 mutant D137E): < 20%
relative binding affinity (human CD81 mutant A164V): < 20%
B1: 002-A07 IgG4 antibody (antibody)
heavy: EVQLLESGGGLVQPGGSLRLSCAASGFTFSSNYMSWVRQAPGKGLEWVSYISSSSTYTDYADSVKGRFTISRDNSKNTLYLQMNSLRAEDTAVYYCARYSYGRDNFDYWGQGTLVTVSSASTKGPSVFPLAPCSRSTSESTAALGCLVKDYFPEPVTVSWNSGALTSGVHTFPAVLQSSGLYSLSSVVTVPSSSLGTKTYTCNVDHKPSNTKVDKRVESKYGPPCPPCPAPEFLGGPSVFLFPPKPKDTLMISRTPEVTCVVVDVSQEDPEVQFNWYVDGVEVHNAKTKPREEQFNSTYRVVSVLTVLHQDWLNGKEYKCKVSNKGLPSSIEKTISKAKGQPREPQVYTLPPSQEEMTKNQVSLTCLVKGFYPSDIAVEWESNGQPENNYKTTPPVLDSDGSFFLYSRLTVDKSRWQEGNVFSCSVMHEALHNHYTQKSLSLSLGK
light: QSVLTQPPSASGTPGQRVTISCTGSTSNIGAGYDTHWYQQLPGTAPKLLIYGNSNRPSGVPDRFSGSKSGTSASLAISGLRSEDEADYYCQSYDTNLSVWVFGGGTKLTVLGQPKAAPSVTLFPPSSEELQANKATLVCLISDFYPGAVTVAWKADSSPVKAGVETTTPSKQSNNKYAASSYLSLTPEQWKSHRSYSCQVTHEGSTVEKTVAPTECS
notes: human IgG4 S228P, lambda light chain
